Experiment: soluble on expression in E. coli; label from the status in PepcDB or PDB records

| Sequence | soluble on expression in E. coli |
| --- | --- |
| MNKNGFSRCADIYIGRLREEGRYSTAHVYQNALLSFSKFCGVHSVSFRQVTRERLRCYEQHLYECGLKPNTISTYMRMLRSIYNRGVEAGSAPYVHRLFHEVYTGVDVRQKRALPVVALRRLLYEDPQSDRLRRTQAIAALMFQFCGMSFADLSHLEKSALDSNVLRYNRVKTKTPMSVEVLDSAQEMLDQLRNRQSPRPGCPDYLFGILHGDKKRKDERAYREYQSALRRFNYCLKSLAKRLRLNFPVTSYTLRHSWATTAKYRGVPIEMISESLGHKSIKTTQIYLKGFELKERTEVNRMNLSYVKRCGVGQCI | not soluble |
| GWAAGDYPVVTTDHLKAMIDEKRDFLLIDARTPEEYAEAHIVGAVNVPEKTFDSASAQLPADKAKLIVLYCNGIKCGKSKRVAKKVEPLGYTAIAVYNEGMPVWEERGLPIVKGAGYGRK | not soluble |
| MKIQCDVCEKAPATLICCADEAALCAKCDVEVHAANKLASKHQRLFLDSLSTKFPPCDICLEKAAFIFCVEDRALLCRDCDEATHAPNTRSANHQRFLATGIRVALSSTSCNQEVEKNHFDPSNQQSLSKPPTQQPAAPSPLWATDEFFSYSDLDCSNKKEQLDLGELDWLAEMGLFGDQPDQEALPVAEVPELSFSHLAHAHSYNRPMKSNVPNKKQRLEYRYDDEEEHFLVPDLG | not soluble |
| MDIKIIKDKKNPLLNRRELDFIVKYEGSTPSRNDVRNKLAAMLNAPLELLVIQRIKTEYGMQESKGYAKLYEDADRMKQVEQEYVLKRNAVPGSETEGEEALEHHHHHH | soluble |
| MSLDFWLYKQAQQNGHHIAITDGQESYTYQNLYCEASLLAKRLKAYQQSRVGLYIDNSIQSIILIHACWLANIEIAMINTRLTPNEMTNQMRSIDVQLIFCTLPLELRGFQIVSLDDIEFAGRDITTNGLLDNTMGIQYDTSNETVVPKESPSNILNTSFNLDDIASIMFTSGTTGPQKAVPQTFRNHYASAIGCKESLGFDRDTNWLSVLPIYHISGLSVLLRAVIEGFTVRIVDKFNAEQILTMIKNERITHISLVPQTLNWLMQQGLHEPYNLQKILLGGAKLSATMIETALQYNLPIYNSFGMTETCSQFLTATPEMLHARPDTVGMPSANVDVKIKNPNKEGHGELMIKGANVMNGYLYPTDLTGTFENGYFNTGDIAEIDHEGYVMIYDRRKDLIISGGENIYPYQIETVAKQFPGISDAVCVGHPDDTWGQVPKLYFVSESDISKAQLIAYLSKHLAKYKVPKHFEKVDTLPYTSTGKLQRNKLYREGHHHHHH | soluble |
| MKEIELKLKGEINRLTNKTFKFDERVGEGWFSAVYFLKTREIIEEFRPKSVVTMQFFQKENAVLCGTDEVIALLQTFAKNPEELEINSLKDGDKISPFETVLTIDGPYENFGFLEGVIDGILARRTSVATNVYNVVQAARSVDKEKPVIFMGDRDDHYTQQAGDGYAAYIGGMSAQATHAMNEWWGKSGMGTMPHALIQMFNGDVVEAAKAYHKKFPEDELVVLIDYNNDVITDALRVAREFGSTLKGVRVDTSRTMIDQYFIRHPEVLGTFDPRGVNPSLVFALRKALDEEGFQHVDIVVTGGFDEKRIREFEAQNVPVDIYGVGSSLLKMNIGFTGDNVELNGKPEAKAGRKYRPNPRLERVQLEKREDM | not soluble |
| AVVASLKPVGFIASAIADGVTETEVLLPDGASEHDYSLRPSDVKRLQNADLVVWVGPEMEAFMQKPVSKLPGAKQVTIAQLEDVKPLLMKSIHGDDDDHDHAEKSDEDHHHGDFNMHLWLSPEIARATAVAIHGKLVELMPQSRAKLDANLKDFEAQLASTETQVGNELAPLKGKGYFVFHDAYGYFEKQFGLTPLGHFTVNPEIQPGAQRLHEIRTQLVEQKATCVFAEPQFRPAVVESVARGTSVRMGTLDPLGTNIKLGKTSYSEFLSQLANQYASCLKGD | soluble |
| QRVKRLLSITNDKHDEYLTEMVPLLVEFAKDECHNPFIDKDGNESIPSGVLIFVAKAAQFYMTNAGLTGRSMDTVSYNFATEIPSTILKKLNPYRKMAR | soluble |
| MQTLILMAYIKRLVSEGKHASLREAYYANKHTVPGTRENTFEDQSESDPIIEDLERMLGVLREEMHITADRRGYIYGDIVIKDGEDEFNASKLGTGGWAVPGTVEHIQFPEINVDYVLVVETAAMADRLIEEKYPKRENCLIVATQGQASRGVRRLIHRLHYEEGLPIIVFTDGDPYGWYIYSTIKRGSINLAYLSEKLATPDAKFVGMTMDDIKEYNLENVTEKLKGIPPDKKGGPTGDYKRLIEELNYPWFQDKEWQRQLKLALKWGVRIEQQALANKSLEFVAKEYLPEKIREGKLLP | soluble |
| MGSDKIHHHHHHMNTDARMGAGVSLKAEHYDQALACNLEGLWFEVHPENYMVGGPRLAWLNRIAERHPVSLHGVALSLAADAAPDQDHLQRLRALCDQIEPVLVYYHLAWSTWQGHYHPDLLPFPRSNEALQRIAENIQRCQEVLGRRISIENPSHYLQLQGHEWDEIDFLGELTRRTGCGLLLDINNVYVSAHNLGFSATAYLDRFPAQAITEVHLAGHSDDDQGSLLIDSHDAQVAEPVWALYRKLVSRVGPRPTLIERDDKLPPFTELLAERSIAQSIMTCPGVLP | not soluble |
| MSLRAGVTGGPQIITKVITMIKFVLDTSIFVNPDVRKKFGETPTEAMKTFLHYAENLFGKVEFYMPPGIYRELMHFVEEEEVSPDIELYIIKKPPNVHDIKIPAFVVYELIEDIRRRVDKGLRVAEKAVRESVIDTSNVDKIIQKLRRNYRKALREGILDSKEDFELILLAKEIDGIIVSADVGILTWAEKMGIKWVDAFKFKEVLSELVEKFKRSESEKERKEGHHHHHH | not soluble |
| QDLLLSYKGKLKNDSIEGEFRQGRFGTMMSLYRGLDAAKPYRPQTPVPPFPYDVTDVKILHKTGGFTIAGTLTAPKDANKTKGTVILISGSGLQDRDETIFGHKPFAVLADQLTRHGYAVLRCDDRGFGESAGDASQATTDTLAGDIESELAYLRQHYPRLTDKVFLIGHSEGGIIAPMVARRVGGIAGLVLVGAPSVKGAEILLSQNAAMDEFATGQPQSQAKRAALEELIRQATAPGDTSDIRTRIESYCRSNASVLFPQAMTDEMKEQGIKLMTEQLYTPWMRHFLTYDPAPLLDVTSGEGSHPLPPTMAIYGGRDKQVLHEVNMSKMKSLLGIETGNTTNKVVYLPEVNHIMQPAEFGTPDEYAFLNRTVDTELMEIVCSFLDSL | not soluble |
| MQGKALQDFVIDKIDDLKGQDIIALDVQGKSSITDCMIICTGTSSRHVMSIADHVVQESRAAGLLPLGVEGENSADWIVVDLGDVIVHVMQEESRRLYELEKLWS | soluble |
| MPAPQVMPAKVAPLPTSFRGTSVDGSFSVDASGNLLITRDIRNLFDYFLSAVGEEPLQQSLDRLRAYIAAELQEPARGQALALMQQYIDYKKELVLLERDLPRLADLDALRQREAAVKALRARIFSNEAHVAFFADEETYNQFTLERLAIRQDGKLSAEEKAAAIDRLRASLPEDQQESVLPQLQSELQQQTAALQAAGAGPEAIRQMRQQLVGAEATTRLEQLDRQRSAWKGRLDDYFAEKSRIEGNTGLSEADRRAAVERLAEERFSEQERLRLGALEQMRQAEQR | not soluble |
| SNAMSKKAELAELVKELAVVHGKVTLSSGKEADYYVDLRRATLHARASRLIGELLRELTADWDYVAVGGLTLGADPVATSVMHADGREIHAFVVRKEAKKHGMQRRIEGPDVVGKKVLVVEDTTTTGNSPLTAVKALREAGAEVVGVATVVDRATGAADVIAAEGLEYRYILGLEDLGLA | soluble |
| MGSDKIHHHHHHMKLHYKKEHISCTNYKSESYEGFGIGTLTSGSNFNSQTLSVKTNFLIFILEGEVEIIPKEGKIKRVIAQEFFFISALSTYEIQVRVPGRYIYMSFLYNDIKLCEKHMLESYLKEVREASEEVGILSVRHPLNLFLELIDAYLRAGVNCKHLHSIKEKELFIILRTSYSKQEIVNLFHEIIGTNMSFKAAVLLHVDRVNNREELAQAMGMSITDLARKFKVEFGESVYSWLLKQKNKKIIYRLAQPGASVKEIVYEFGFSSAASFNKYCKKNFGNSPRELVRQLKDKHIDNQNLKI | not soluble |
| MEDIWPTIERTTISASVPEAPANFDEKPPFNRTINVYPLTNYTFGTKDAQAEKDKSVPERFKRMKDEYEVMGMRRSVEAVLIVHEHSLPHILLLQIGTTFYKLPGGELELGEDEISGVTRLLNETLGRTDGETNEWTIEDEIGNWWRPNFDPPRYPYIPAHVTKPKEHTKLLLVQLPSKSTFCVPKNFKLVAAPLFELYDNAAAYGPLISSLPTTLSRFNFIFNDSN | not soluble |
| MERAESSSTEPAKAIKPIDRKSVHQICSGQVVLSLSTAVKELVENSLDAGATNIDLKLKDYGVDLIEVSDNGCGVEEENFEGLTLKHHTSKIQEFADLTQVETFGFRGEALSSLCALSDVTISTCHASAKVGTRLMFDHNGKIIQKTPYPRPRGTTVSVQQLFSTLPVRHKEFQRNIKKEYAKMVQVLHAYCIISAGIRVSCTNQLGQGKRQPVVCTGGSPSIKENIGSVFGQKQLQSLIPFVQLPPSDSVCEEYGLSCSDALHNLFYISGFISQCTHGVGRSSTDRQFFFINRRPCDPAKVCRLVNEVYHMYNRHQYPFVVLNISVDSECVDINVTPDKRQILLQEEKLLLAVLKTSLIGMFDS | soluble |
| MNMKTIEDVFIHLLSDTYSAEKQLTRALAKLARATSNEKLSQAFHAHLEETHGQIERIDQVVESESNLKIKRMKCVAMEGLIEEANEVIESTEKNEVRDAALIAAAQKVEHYEIASYGTLATLAEQLGYRKAAKLLKETLEEEKATDIKLTDLALNNVNKKAENKA | soluble |
| MKGGDRAYTRGPSLGWLFAKCCCCFPCRDAYSHSSSENGGKSESVANLQAQPSLNSIHSSPGPKRSTNTLKKWLTSPVRRLNSGKADGNIKKQKKVRDGRKSFDLGSPKPGDETTPQGDSADEKSKKGWGEDEPDEESHTPLPPPMKIFDNDPTQDEMSSSLLAARQASTEVPTAADLVNAIEKLVKNKLSLEGSSYRGSLKDPAGCLNEGMAPPTPPKNPEEEQKAKALRGRMFVLNELVQTEKDYVKDLGIVVEGFMKRIEEKGVPEDMRGKDKIVFGNIHQIYDWHKDFFLAELEKCIQEQDRLAQLFIKHERKLHIYVWYCQNKPRSEYIVAEYDAYFEEVKQEINQRLTLSDFLIKPIQRITKYQLLLKDFLRYSEKAGLECSDIEKAVELMCLVPKRCNDMMNLGRLQGFEGTLTAQGKLLQQDTFYVIELDAGMQSRTKERRVFLFEQIVIFSELLRKGSLTPGYMFKRSIKMNYLVLEENVDNDPCKFALMNRETSERVVLQAANADIQQAWVQDINQVLETQRDFLNALQSPIEYQRKERSTAVMRSQPARLPQASPRPYSSVPAGSEKPPKGSSYNPPLPPLKISTSNGSPGFEYHQPGDKFEASKQNDLGGCNGTSSMAVIKDYYALKENEICVSQGEVVQVLAVNQQNMCLVYQPASDHSPAAEGWVPGSILAPLTKATAAESSDGSIKKSCSWHTLRMRKRAEVENTGKNEATGPRKPKDILGNKVSVKETNSSEESECDDLDPNTSMGILNPNFIQEVAPEFLVPLVDVTCLLGDTVILQCKVCGRPKPTITWKGPDQNILDTDNSSATYTVSSCDSGEITLKICNLMPQDSGIYTCIATNDHGTTSTSATVKVQGVPAAPNRPIAQERSCTSVILRWLPPSSTGNCTISGYTVEYREEGSQIWQQSVASTLDTYLVIEDLSPGCPYQFRVSASNPWGISLPSEPSEFVRLPEYDAAADGATISWKENFDSAYTELNEIGRGRFSIVKKCIHKATRKDVAVKFVSKKMKKKEQAAHEAALLQHLQHPQYITLHDTYESPTSYILILELMDDGRLLDYLMNHDELMEEKVAFYIRDIMEALQYLHNCRVAHLDIKPENLLIDLRIPVPRVKLIDLEDAVQISGHFHIHHLLGNPEFAAPEVIQGIPVSLGTDIWSIGVLTYVMLSGVSPFLDESKEETCINVCRVDFSFPHEYFCGVSNAARDFINVILQEDFRRRPTAATCLQHPWLQPHNGSYSKIPLDTSRLACFIERRKHQNDVRPIPNVKSYIVNRVNQGT | soluble |
